In patent US8525237:

How the values were obtained:
[1] = target: M13 bacteriophage incorporated into PEDOT nanowires (M13 bacteriophage); experiment: electrical resistance of virus-PEDOT nanowire array in PBF
[2] = target: M13 bacteriophage incorporated into PEDOT nanowires (M13 bacteriophage); experiment: electrical resistance of virus-PEDOT nanowire array in PBF, 99 nM antibody

“Anti-M13 antibody (p-Ab, GE Healthcare Life Sciences)” showed a limit of detection [1] of 20 nM and an increase in the resistance (ΔR/R0) at 99 nM antibody [2] of 40%.
